In paper PMC11966256:

Columns and labels:
[1] = molecular target: HsLARP6(73-183) La domain (Homo sapiens, UniProt Q9BRS8); experiment: analytical SEC
[2] = molecular target: HsLARP6(84-183) La domain (Homo sapiens, UniProt Q9BRS8); experiment: analytical SEC
[3] = molecular target: Cy5-HsLARP6(73-183)G74C La domain (Homo sapiens, UniProt Q9BRS8, G74C); experiment: MST

Binder: GGCACAAGGAGUCUGCAUGUCUAAGUGCUAGACAUGCUCAGCUUUGUG (structured_RNA) [5'SL RNA (a2(I)), 48 nt]
- binding result [1]: binds
- binding result [2]: binds
- Kd [3]: 4.87 ± 0.15 nM
